The supplement of paper PMC9170038

Tests used:
Conditions in all cases: FMN input: 0 or 200 uM; Eterna round: R93 (includes R88 designs)
[1] = system: MS2 coat protein; assay: apparent KD of MS2 coat protein, switch ON state; designed switch direction (-1 OFF switch, 1 ON switch): 1; higher = weaker reporter binding
Summary of the method: (§1)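 With or without constant ligand, designed RNA switches in 100 mM Tris-HCl pH 7.5, 80 mM KCl and 4 mM MgCl2 were titrated with SNAP-549-labelled MS2 coat protein. Concentrations went up in twofold steps from 0.7 or 1.5 nM to 3 µM. The switches had been transcribed on-chip from Illumina sequencing clusters, and apparent KD is the per-design median of normalised cluster binding-curve fits.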

[2] = system: MS2 coat protein; assay: apparent KD of MS2 coat protein, switch OFF state (with FMN for OFF switches, without FMN for ON switches); designed switch direction (-1 OFF switch, 1 ON switch): 1; higher = weaker reporter binding
Summary of the method: as §1

[3] = system: MS2 coat protein; assay: apparent KD of MS2 coat protein, switch OFF state (with FMN for OFF switches, without FMN for ON switches); designed switch direction (-1 OFF switch, 1 ON switch): -1; higher = weaker reporter binding
Summary of the method: as §1

[4] = system: MS2 coat protein; assay: apparent KD of MS2 coat protein, switch ON state; designed switch direction (-1 OFF switch, 1 ON switch): -1; higher = weaker reporter binding
Summary of the method: as §1

| Sequence | apparent KD of MS2 coat protein [1] [nM] | apparent KD of MS2 coat protein [2] [nM] | apparent KD of MS2 coat protein [3] [nM] | apparent KD of MS2 coat protein [4] [nM] |
| --- | --- | --- | --- | --- |
| AAAAAAAAAAGAGAGGAUAUCCAAAAAAAAACAUGAGGAUCACCCAUGUAAAAAAAAAAAAAAUGGGAGAAGGCUCAAAAAAAAAA [Helter Skelter 1] | 33.4 | 54.8 | – | – |
| AAAAAACAUGAGGAUCACCCAUGUAAAAAAAUGGGAGGAUAUACAAAAACGAAAGAAAAAGUAGAAGGCCUGAAAA [same state 7] | 37.7 | 159 | – | – |
| AAAAAACAUGAGGAUCACCCAUGUAAAAAUAUGGGAGGAUAUACAAACACGAAAGUGAAAGUAGAAGGCCUAAAAA [SS! MT 17] | 19 | 85.3 | – | – |
| AAAAAACAUGAGGAUCACCCAUGUCAAAAGACGUGAGGAUAUGUACAGACUUCGGUCUGUACAGAAGGCAUGUAAA [SS1 - 1053] | 21.3 | 144 | – | – |
| AUGGUACAUGAGGAUCACCCAUGUCAGGAUAUCGGCUAAAACGUAAAAAAAAUAAAAGCGAGAAGGGACUGCUC [EX1 Malc#18 Mod 8 - Jieux - Exclusion 1] | – | – | 28.3 | 24 |
| CAAAAGGAAGGAUAUACAUAAUAAAACGGGCGGGCACCUUAACAUGAGGAUCACCCAUGUAGAAGGUCCAAUAC [Onesmabe] | – | – | 18.6 | 15.7 |
| CAGAGACAUGAGGAUCACCCAUGUUAGGAUAUGCGUGUAUGCUAAAAAAAGUUAACAAGCAGAAGGAACAGAGG [JR_Exc001_Sub309] | – | – | 64.2 | 24.3 |
| CAGGUAUGAGGAUAUACAUAGAUACAGACACAUGUUCAAGUACAUGAGGAUCACCCAUGUAGAAGGCAUAUAUG [Mat - Same state - Mayanna Mod - D106] | – | – | 35.1 | 22.3 |
| CCGAGGCGAGGAUAUAUGAAGGACACAACAUUUAGGGUAAGACAUGAGGAUCACCCAUGUAGAAGGCGCGACGC [Ex2_Neo] | – | – | 38.7 | 74.5 |
| CCUAAGAAAGGAUAUACACCGGUGAACCGCUGAAAUCAGCAACAUGAGGAUCACCCAUGUAGAAGGUUUAUGGG [Erusqu] | – | – | 133 | 237 |
| CCUACGUGAGGAUAUGCGGAUAACACGUUAGACAAAUAGACGCAGAAGGCACAUGAGGAUCACCCAUGUGAACC [JR_Exc004_Sub317] | – | – | 17.6 | 21.9 |
| CCUCGACAUGAGGAUCACCCAUGUUAGGAUAUAUACAAACCCGAAAACCAAGGGCAAAAUAGAAGGAACGUGCA [Masoedma] | – | – | 19.2 | 14.8 |
| CUCAAGUUAGGAUAUACAAGAAAAGAAGAGAAAGAAAAGAAGUAGAAGGAACAUGAGGAUCACCCAUGUAAGAA [EteRNA is fun!] | – | – | 25.7 | 33.2 |
| CUCAUGUAAGGAUAUGACUACAUAAAAAAAAAAAAAUGUAGUCAGAAGGUACAUGAGGAUCACCCAUGUACAAA [Brourd - Exclusion 4 - Sub 3] | – | – | 25.2 | 59 |
| CUCAUGUCAGGAUAUGUAGCAUGAUACGAAAGUAUCAUGCUACAGAAGGGACAUGAGGAUCACCCAUGUCAAAA [Ex4: 943] | – | – | 17.5 | 22.1 |
| CUCAUGUCAGGAUAUGUCAAAAGUCACAAAAGUGACAAAAGACAGAAGGGACAUGAGGAUCACCCAUGUAAAAA [Starry Exclusion 4.6 (starryjess round 1 mod)] | – | – | 15.5 | 20.6 |
| CUCAUGUUAGGAUAUAAAUGAAAUGAAGUGAAAGAAAAGAAUUAGAAGGAACAUGAGGAUCACCCAUGUUAGAA [EteRNA is fun!] | – | – | 37.6 | 47.8 |
| CUCUUGUCAGGAUAUCAAAGAAAAGAAGAGAAAGAAAAGAAUGAGAAGGGACAUGAGGAUCACCCAUGUAAGAA [EteRNA is fun!] | – | – | 51.7 | 48.1 |
| GAAAAACAUGAGGAUCACCCAUGUAAGGAUAUGCGAAAAUAAAAUAAAAUAAAAUAAAGCAGAAGGUACAAAAG [Mat - Exclusion 1 - Eli mod - D2] | – | – | 58.4 | 34.7 |

| Sequence | apparent KD of MS2 coat protein [1] [nM] | apparent KD of MS2 coat protein [2] [nM] | apparent KD of MS2 coat protein [3] [nM] | apparent KD of MS2 coat protein [4] [nM] |
| --- | --- | --- | --- | --- |
| GAAAAACAUGAGGAUCACCCAUGUUAGGAUAUGCUAUGGAAAAAUAAAAUAAAACAUAGCAGAAGGGACAAAAG [Mat - Exclusion 1 - Eli mod - D29] | – | – | 88.5 | 24.7 |
| GAAAAAGGAGGAUAUACGAACAUGUCAAAAGACGUGAAGGGACAUGAGGAUCACCCAUGUAGAAGGCUUAAAAG [Mat - Exclusion 2 - JL mod - D94] | – | – | 15.7 | 37.4 |
| GAAAACCUAGGAUAUACAUGAGGAUCACCCAUGUCAGUAGACUGGGAAAGGUCUCUCAGUAGAAGGAGGACCCG [Zaered] | – | – | 437 | 509 |
| GAAAAGUCAGGAUAUACAGAAAAAAAAACGAAAAAAAAUCUGUAGAAGGGACAUGAGGAUCACCCAUGUUAAAG [Mat - Exclusion 4 - Mayanna - D126] | – | – | 23.6 | 38 |
| GAAAAGUCAGGAUAUAUAGGAAAAAUAAAAAAAAUAAAACUAUAGAAGGGACAUGAGGAUCACCCAUGUUAAAA [Mat - Exclusion 4 - Mayanna - D131] | – | – | 24.7 | 43.9 |
| GAAAAGUGAGGAUAUACAUGAGGAUCACCCAUGUGUAUAAAAAAUUACACAAAAGAAAGUAGAAGGCACUAAAA [Mat - Exclusion 3 - Mayanna mod - D114] | – | – | 28.1 | 17.8 |
| GACGAGUGAGGAUAUGUAAAAAAAAGAGAAGAGAAGAGAGAACAGAAGGCACAUGAGGAUCACCCAUGUAGGGA [Default title] | – | – | 71 | 114 |
| GAGAAGUUAGGAUAUGCGGAGGGAAGGAAGGAAAGGGAAGGGCAGAAGGAACAUGAGGAUCACCCAUGUAAGAG [salish99-ex4-02] | – | – | 25.3 | 35.9 |
| GAGAGCCGAGGAUAUACAUGAGGAUCACCCAUGUAAAAAAAAAAAAAAAAAAAAUCAUGUAGAAGGCGGCUUUC [hsl_exclusion3] | – | – | 28.9 | 234 |
| GCUUGUCAAGGAUAUACAUGAGGAUCACCCAUGUGAGAGAAAAAAGUGAGAAAGAAAAGUAGAAGGUGGUGAGG [salish99-ex3-78] | – | – | 46.6 | 33.3 |
| GCUUUGCAAGGAUAUACAUGAGGAUCACCCAUGUGAGAGAAAAAAGUGAGAAAGAAAAGUAGAAGGUGCGGAGG [salish99-ex3-120] | – | – | 44 | 34.2 |
| GGAUGUCAAGGAUAUACAUGAGGAUCACCCAUGUGAGAGAAAAAAGUGAGAAAGAAAAGUAGAAGGUGGUGUCG [salish99-ex3-87] | – | – | 56.1 | 38.5 |
| GGGCCACAUGAGGAUCACCCAUGUAAGGAUAUGCUAGGGAUGGAAACCAUUACGCAAAGCAGAAGGUACUAAAG [Janelle Amethyst 18 Mod 10 - Jieux - Exclusion 1] | – | – | 28.2 | 26.6 |
| GGUUGGCGAGGAUAUACAUGAGGAUCACCCAUGUGAGAGAAAAAAGUGAGAAAGAACAGUAGAAGGCGCUGACG [salish99-ex3-29] | – | – | 72.8 | 23.4 |
| GUGUACAGAGGAUAUACUAAAGCAUGGAAACAUGCAAGAUCACAUGAGGAUCACCCAUGUAGAAGGCUGUACAC [Ex2: 741] | – | – | 529 | 62.3 |
| UACGUAUGAGGAUAUACAAACAGAAAAAUCAGACAUAACAGACAUGAGGAUCACCCAUGUAGAAGGCAUAUACA [JR_Exc002_Sub903] | – | – | 15.3 | 20.1 |
| UAGGUACGAGGAUAUACAUAGAUACAGACACAUGUAGAUGUACAUGAGGAUCACCCAUGUAGAAGGCGUAUAUA [Mat - Same state - Mayanna Mod - D110] | – | – | 142 | 52.6 |
| UAUAACCAAGGAUAUACUAACGAAACUAAUGCAUAUAUAUAACAUGAGGAUCACCCAUGUAGAAGGUGGAGAAU [JR_Exc002_Sub012] | – | – | 50.2 | 60.5 |
| UAUAGACAUGAGGAUCACCCAUGUGAGGAUAUCGGUAACUACAAAACAUCACAUACAACGAGAAGGCACAGAAA [JR_Exc001_Sub013] | – | – | 35.1 | 41.5 |
